Test results reported in US12091391B2, “Reagents and methods for bioorthogonal labeling of biomolecules in living cells” (Oregon State University, priority 2015, dated 2024).

assay: UP50 characterization of select synthetases (GFP fluorescence versus Tet-v3.0 concentration); type: cell-based, E. coli; details: fluorescence normalized to optical density, amino acid Tet-v3.0 (methyl)
Text: The UP50 value is a measure of amino acid concentration at which cells containing a given synthetase produces half of the maximum amount of unnatural protein containing the amino acid of interest. In this way the UP50 is dependent both on the synthetase and amino acid of interest. This value is obtained by measuring the fluorescence of produced GFP at various concentrations of amino acids and fitting measured values to the curve:
UP is the measured fluorescence, [AA] is the amino acid concentration, and UPmax is the maximum protein produced. The methodology for obtaining UP50 and UPmax values is described below.
Non-inducing media starter cultures containing Tcn (25 μg/mL) and Kn (50 μg/mL) were grown overnight (37° C., 18 hrs). Starter cultures consisted of E. coli DH10B transformed with a pBK plasmid containing the synthetases of interest (R2-40, R2-74, and R2-84) and tRNA, as well as a pALS plasmid containing an amber codon interrupted GFP gene under control of an araBAD promoter. Starters were used to inoculate (30 μL) autoinducing media (3 mL) containing Tcn (25 μg/mL), Kn (50 μg/mL), and Tet-v3.0 at various concentrations. Tet-v3.0 concentrations were varied from 0.005 mM to 1 mM with duplicates for each concentration. As a control, media was inoculated in duplicate containing no amino acid. To aid in dissolution, 30 μL of N,N-dimethyl formamide (DMF) was added to the Tet-v3.0 prior to addition to media.
The fluorescence and optical density of the media was measured after 24, 36, and 48 hrs. The fluorescence normalized to the optical density was plotted across Tet-v3.0 concentrations and used to calculate the UP50 and UPmax for individual synthetases (see FIG. 16. FIG. 16 compares UP50 titration curves for three Tet-v3.0-methyl incorporating synthetases: R2-40, R2-74, and R2-84. UP50 and UPmax values are obtained from the fit of the curves. The R2-74 synthetase was moved into eukaryotic plasmids for protein expression.

Molecule	UPmax
R2-40: M. barkeri PylRS synthetase hit for Tet-v3.0: N311G, C313A, K296R (protein, UniProt Q46E77 1-419, looked up, variant N311G C313A K296R) Pyrrolysine--tRNA ligase: MDKKPLDVLISATGLWMSRTGTLHKIKHYEVSRSKIYIEMACGDHLVVNNSRSCRTARAFRHHKYRKTCKRCRVSDEDINNFLTRSTEGKTSVKVKVVSAPKVKKAMPKSVSRAPKPLENPVSAKASTDTSRSVPSPAKSTPNSPVPTSAPAPSLTRSQLDRVEALLSPEDKISLNIAKPFRELESELVTRRKNDFQRLYTNDREDYLGKLERDITKFFVDRDFLEIKSPILIPAEYVERMGINNDTELSKQIFRVDKNLCLRPMLAPTLYNYLRKLDRILPDPIKIFEVGPCYRRESDGKEHLEEFTMVGFAQMGSGCTRENLESLIKEFLDYLEIDFEIVGDSCMVYGDTLDIMHGDLELSSAVVGPVPLDREWGIDKPWIGAGFGLERLLKVMHGFKNIKRASRSESYYNGISTNL	540
R2-74: M. barkeri PylRS synthetase hit for Tet-v3.0: L270G, N311G, C313S (protein, UniProt Q46E77 1-419, looked up, variant L270G N311G C313S) Pyrrolysine--tRNA ligase: MDKKPLDVLISATGLWMSRTGTLHKIKHYEVSRSKIYIEMACGDHLVVNNSRSCRTARAFRHHKYRKTCKRCRVSDEDINNFLTRSTEGKTSVKVKVVSAPKVKKAMPKSVSRAPKPLENPVSAKASTDTSRSVPSPAKSTPNSPVPTSAPAPSLTRSQLDRVEALLSPEDKISLNIAKPFRELESELVTRRKNDFQRLYTNDREDYLGKLERDITKFFVDRDFLEIKSPILIPAEYVERMGINNDTELSKQIFRVDKNLCLRPMLAPTGYNYLRKLDRILPDPIKIFEVGPCYRKESDGKEHLEEFTMVGFSQMGSGCTRENLESLIKEFLDYLEIDFEIVGDSCMVYGDTLDIMHGDLELSSAVVGPVPLDREWGIDKPWIGAGFGLERLLKVMHGFKNIKRASRSESYYNGISTNL	400
R2-84: M. barkeri PylRS synthetase hit for Tet-v3.0: L270G, N311G, C313A, R263C (protein, UniProt Q46E77 1-419, looked up, variant L270G N311G C313A R263C) Pyrrolysine--tRNA ligase: MDKKPLDVLISATGLWMSRTGTLHKIKHYEVSRSKIYIEMACGDHLVVNNSRSCRTARAFRHHKYRKTCKRCRVSDEDINNFLTRSTEGKTSVKVKVVSAPKVKKAMPKSVSRAPKPLENPVSAKASTDTSRSVPSPAKSTPNSPVPTSAPAPSLTRSQLDRVEALLSPEDKISLNIAKPFRELESELVTRRKNDFQRLYTNDREDYLGKLERDITKFFVDRDFLEIKSPILIPAEYVERMGINNDTELSKQIFRVDKNLCLCPMLAPTGYNYLRKLDRILPDPIKIFEVGPCYRKESDGKEHLEEFTMVGFAQMGSGCTRENLESLIKEFLDYLEIDFEIVGDSCMVYGDTLDIMHGDLELSSAVVGPVPLDREWGIDKPWIGAGFGLERLLKVMHGFKNIKRASRSESYYNGISTNL	517
